Measured values from US9926369B2, “Methods for treating hepatocellular cancer by administering an anti-Ang-2 antibody” (Regeneron Pharmaceuticals, Inc., priority 2009, dated 2018).

T1: hAng-1-WT binding to hTie-2-mFc (Homo sapiens, UniProt Q15389)
T1 sequence (Q15389 20-498 limits assumed): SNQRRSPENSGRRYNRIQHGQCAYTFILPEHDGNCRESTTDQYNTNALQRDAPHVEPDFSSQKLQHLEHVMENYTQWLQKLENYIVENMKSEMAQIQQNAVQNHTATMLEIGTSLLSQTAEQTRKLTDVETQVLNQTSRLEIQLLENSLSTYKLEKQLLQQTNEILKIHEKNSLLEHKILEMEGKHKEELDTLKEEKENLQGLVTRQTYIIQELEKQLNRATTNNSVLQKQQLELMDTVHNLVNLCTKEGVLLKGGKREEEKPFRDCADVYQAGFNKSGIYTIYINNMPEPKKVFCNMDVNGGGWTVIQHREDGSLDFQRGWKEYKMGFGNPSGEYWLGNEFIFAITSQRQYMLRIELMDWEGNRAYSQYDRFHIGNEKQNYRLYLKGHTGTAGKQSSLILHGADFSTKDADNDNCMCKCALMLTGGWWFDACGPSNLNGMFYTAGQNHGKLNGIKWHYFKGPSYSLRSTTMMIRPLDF

T2: hAng-2-WT binding to hTie-2-mFc (Homo sapiens, UniProt O15123)
T2 sequence (O15123 19-496): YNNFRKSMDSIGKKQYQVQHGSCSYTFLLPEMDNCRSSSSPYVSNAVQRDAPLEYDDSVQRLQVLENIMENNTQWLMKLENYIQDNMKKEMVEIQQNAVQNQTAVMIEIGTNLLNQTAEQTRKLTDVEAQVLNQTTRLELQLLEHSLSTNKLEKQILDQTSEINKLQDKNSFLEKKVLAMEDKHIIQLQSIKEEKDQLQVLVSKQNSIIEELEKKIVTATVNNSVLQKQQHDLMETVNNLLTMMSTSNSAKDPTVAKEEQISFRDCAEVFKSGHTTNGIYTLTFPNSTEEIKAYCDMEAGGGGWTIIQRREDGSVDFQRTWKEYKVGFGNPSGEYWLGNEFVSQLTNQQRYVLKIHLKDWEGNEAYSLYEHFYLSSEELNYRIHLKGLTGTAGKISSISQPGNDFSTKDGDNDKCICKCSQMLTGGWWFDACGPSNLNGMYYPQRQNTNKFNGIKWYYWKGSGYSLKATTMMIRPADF


Assays:
[1] = tested on: Tie-2 phosphorylation (Ang-2-mediated) in HUVECs; test: Inhibition of Ang-2-mediated Tie-2 phosphorylation in FOXO1-adenovirus infected HUVECs; type: cell-based, human; settings: antibody 0.5 μg/ml
Procedure: Further, the inventors have shown that infection of HUVECs with an adenovirus encoding FOXO1 results in expression and secretion of Ang-2, followed by activation of Tie-2 phosphorylation (Daly et al. 2006 PNAS 103:15491).
Anti-Ang-2 antibodies were tested for their ability to inhibit Tie-2 phosphorylation. Briefly, 7×10^5 HUVECs (Vec Technologies, Rensselaer, N.Y.) were plated in 6 cm cell culture dishes in 3.5 ml of MCDB131 Complete medium (Vec Technologies, Rensselaer, N.Y.). The following day, the cells were washed with Opti-MEM (Invitrogen Corp., Carlsbad, Calif.) and fed with 2 ml of Opti-MEM. […] Cells were then washed with MCDB131 and fed with 2 ml of MCDB131 containing anti-Ang-2 antibodies at a concentration of 0.5 μg/ml. At twenty hours post infection, cells were lysed and subjected to Tie-2 immunoprecipitation as described by Daly et al., Proc. Natl. Acad. Sci. USA 103:15491-15496 (2006). Immunoglobulin was collected on protein A/G beads (Santa Cruz Biotechnology, Santa Cruz, Calif.) for one hour. Beads were washed with cold lysis buffer and resuspended in SDS sample buffer for analysis by western blot with antibodies specific for phosphotyrosine (Millipore, Billerica, Mass.) or Tie-2. Signals were detected using HRP-conjugated secondary antibodies and ECL reagents (GE Healthcare, Piscataway, N.J.). X-Ray films were scanned and the phospho-Tie-2 and Tie-2 signals were quantified using ImageJ software. The phospho-Tie-2/Tie-2 ratios were used to determine the % inhibition for each anti-Ang-2 antibody (i.e. Percent inhibition=Reduction in phospho-Tie-2/Tie-2 as compared to control).

[2] = tested on: retinal superficial vasculature; test: Retinal vascularization in wild-type mice; type: in vivo; settings: 12.5 mg/kg subcutaneous at P2, retina at P5
Procedure: (§1) In one set of experiments wild-type mice were used. In another set, mice expressing a human Ang-2 in place of the wild-type mouse Ang-2 (designated “hu-Ang-2 mice”) were used. The mice at two days of age (P2) were injected subcutaneously with either control Fc or with selected anti-Ang-2 antibodies at a dose of 12.5 mg/kg. Three days later (at P5), pups were euthanized, and eyeballs were enucleated and fixed in 4% PFA for 30 minutes. Retinas were dissected, stained with Griffonia simplicifolia lectin-1 for 3 hours or overnight at 4° C. to visualize the vasculature, and flat-mounted on microscope slides. Images were taken using a Nikon Eclipse 80i microscope camera and analyzed using Adobe Photoshop CS3, Fovea 4.0, and Scion 1.63 software.
(§2) Areas of the retina covered with superficial vasculature were measured and used as a readout of antibody activity. The reduction in the size of the vascular areas in mice treated with antibody compared to Fc-treated controls is presented in Table 34. The percent reduction in vascular area reflects the anti-angiogenic potency of the antibody. (N/D=not determined)

[3] = tested on: retinal superficial vasculature; test: Retinal vascularization in hu-Ang-2 mice; type: in vivo; settings: 12.5 mg/kg subcutaneous at P2, retina at P5
Procedure: as §1, §2

[4] = tested on: PC3 (Human Prostate Cancer Cell Line) tumors; test: PC3 mouse tumor model; type: in vivo, NCr nude mice; settings: PC3, 10 mg/kg intraperitoneal twice per week
Procedure: Briefly, 5×10^6 PC3 cells in 100 μl of growth factor-reduced Matrigel (BD Biosciences) were injected subcutaneously into the flanks of 6-8 week old male NCr nude mice (Taconic, Hudson, N.Y.). After tumor volumes reached an average of about 200 mm^3, mice were randomized into groups for treatment. […] Tumor volumes were measured twice per week over the course of the experiment and tumor weights were measured upon excision of tumors at the conclusion of the experiment. Averages (mean+/−standard deviation) of tumor weight and growth were calculated for each treatment group. Percent decrease of tumor weight and growth were calculated from comparison to Fc protein measurements.

[5] = target: T1, hAng-1-WT binding to hTie-2-mFc; test: Biosensor SPR blocking of hAng-1-WT binding to hTie-2-mFc-ecto surface; type: biochemical; settings: 10 nM hAng-1-WT
Procedure: In an effort to further assess the ability of selected anti-hAng-2 antibodies to block the binding of Ang-1 to Tie-2, a biosensor surface plasmon resonance experiment was conducted. In this experiment, a human Tie-2 full-length extracellular domain construct (hTie-2-mFc-ecto) was amine-coupled on a BIACORE™ chip to create a receptor coated surface. Selected anti-hAng-2 antibodies and control constructs, at 1 μM (100-fold excess over antigen), were premixed with 10 nM of hAng-1-WT, followed by 60 minutes incubation at 25° C. to allow antibody-antigen binding to reach equilibrium to form equilibrated solutions. The equilibrated solutions were injected over the receptor surfaces at 5 μL/min for 5 minutes at 25° C. Changes in resonance units (RU) due to the binding of the hAng-1-WT to hTie-2-mFc were determined. An irrelevant peptibody construct with no binding to hAng-1 was included in this experiment to establish the 0% blocking baseline, and a human Tie-2-mFc construct was used as a positive control for blocking. The amount of Ang-1 bound to Tie-2 following antibody preincubation, expressed as a percentage of the amount of Ang-1 bound to Tie-2 following negative control preincubation, is shown in Table 20. (A greater amount of Ang-1 binding to Tie-2 signifies a lower degree of antibody blocking).
(§3) The foregoing experiment was repeated using different amounts of Ang-2 blockers and controls. In particular, a human Tie-2 full-length extracellular domain construct (hTie-2-mFc-ecto) was amine-coupled on a BIACORE™ chip to create a receptor-coated surface. Selected anti-hAng-2 antibodies and control constructs (50 or 150 nM) were mixed with hAng-2-WT (25 nM) followed by 60 minutes incubation at 25° C. to allow antibody-antigen binding to reach equilibrium. The equilibrated solutions were injected over the receptor surfaces at 10 μL/min for 5 minutes at 25° C. To evaluate the ability of the selected anti-hAng-2 antibodies to block Ang-1-WT binding to hTie-2, a similar procedure was followed except the antibodies were tested at three concentrations (50, 100 or 1000 nM) and incubated with 10 nM of hAng-1-WT. Changes in resonance units (RU) due to the binding of the Ang-2-WT or hAng-1-WT to hTie-2-mFc were determined. An irrelevant antibody with no binding to either angiopoietin was included in these experiments to establish the 0% blocking baseline, and a human Tie-2-mFc construct was used as a positive control for blocking. Results are summarized in Tables 21 (hAng-1 applied to a hTie-2 surface) and 22 (hAng-2 applied to a hTie-2 surface).

[6] = target: T2, hAng-2-WT binding to hTie-2-mFc; test: Biosensor SPR blocking of hAng-2-WT binding to hTie-2-mFc-ecto surface; type: biochemical; settings: 25 nM hAng-2-WT
Procedure: as §3

| Percent of Neg. Ctrl Binding (hAng-1 WT) ([5]; 50 nM antibody or control) [%] | Specific Bound RU (hAng-1 WT) ([5]; 50 nM antibody or control) [RU] | Percent of Neg. Ctrl Binding (hAng-1 WT) ([5]; 100 nM antibody or control) [%] | Specific Bound RU (hAng-1 WT) ([5]; 100 nM antibody or control) [RU] | Percent of Neg. Ctrl Binding (hAng-1 WT) ([5]; 1000 nM antibody or control) [%] | Specific Bound RU (hAng-1 WT) ([5]; 1000 nM antibody or control) [RU] | Percent of Neg. Ctrl Binding (hAng-2 WT) ([6]; 50 nM antibody or control) [%] | Specific Bound RU (hAng-2 WT) ([6]; 50 nM antibody or control) [RU] | Percent of Neg. Ctrl Binding (hAng-2 WT) ([6]; 150 nM antibody or control) [%] | Specific Bound RU (hAng-2 WT) ([6]; 150 nM antibody or control) [RU] | Molecule | Inhibition of Tie-2 phosphorylation [1] | Inhibition of Tie-2 phosphorylation (in words) [1] | % Reduction in Vascular Area Relative to Fc Control, Wild-Type Mice [2] [%] | % Reduction in Vascular Area Relative to Fc Control, hAng-2 Mice [3] [%] | Avg Tumor Weight ([4]; approximately three weeks, mean ± SD) [g] | Avg Tumor Growth ([4]; mean ± SD) [mm^3] | % Decrease in Tumor Growth ([4]; vs Fc protein) [%] | % Decrease in Tumor Weight ([4]; vs Fc protein) [%] |
| --- | --- | --- | --- | --- | --- | --- | --- | --- | --- | --- | --- | --- | --- | --- | --- | --- | --- | --- |
| – | – | – | – | – | – | – | – | – | – | H1H690P: anti-Ang-2 antibody, HCVR/LCVR SEQ ID NOs 42/44 (antibody, V domains shown) VH: EVQLVESGGGLVQPGESLRLSCAASGFTFSSYAMSWVRQGPGKGLEWVSSITGSGDTTYYADSVKGRFTISRDNSKNTLYLHMNSLRAEDTAVYYCAKDFLDYSTYLAFDLWGQGTMVTVSS VL: EIVLTQSPATLSLSPGERATLSCRASQSVSSYLTWYQQKPGQAPRLLSYDASNRATGIPARFSGSGSGTDFTLTISSLEPEDFAVYYCQQRSNWPLTFGGGTKVEIK | +++ (75-100%) | Especially robust inhibition | 30.7 | 41.5 | – | – | – | – |
| – | – | – | – | – | – | – | – | – | – | H1H724N: anti-Ang-2 antibody (724N) cloned onto human IgG1 (antibody, V domains shown) VH: QVQLVESGGGVVQPGRSLRLSCAASGFTLSNYGMHWVRQAPGKGLEWVAVIWHDGSNTYYADSVKGRFTISRDNSKNTLYLQMNSLRAEDTAVYYCTREGLDFWSGYYPNWFDPWGQGTLVTVSS VL: DIQMTQSPSSLSASVGDRVTITCRASQGIRNDLGWYQQKPGKAPKRLIYAASNLQGGVPSRFSGSGSGTEFTLTISSLQPEDFAAYYCLQHNIYPLTFGGGTKVEIK | – | – | 32.2 | 33.2 | 0.55 ± 0.07 | 392 ± 169 | 23 | 17 |
| 22 | 70 | 13 | 39 | 0 | −47 | 35 | 97 | 30 | 82 | hTie-2-mFc: chimeric construct consisting of human Tie-2 conjugated to mouse IgG; positive control for blocking (protein) MDSLASLVLCGVSLLLSGTVEGAMDLILINSLPLVSDAETSLTCIASGWRPHEPITIGRDFEALMNQHQDPLEVTQDVTREWAKKVVWKREKASKINGAYFCEGRVRGEAIRIRTMKMRQQASFLPATLTMTVDKGDNVNISFKKVLIKEEDAVIYKNGSFIHSVPRHEVPDILEVHLPHAQPQDAGVYSARYIGGNLFTSAFTRLIVRRCEAQKWGPECNHLCTACMNNGVCHEDTGECICPPGFMGRTCEKACELHTFGRTCKERCSGQEGCKSYVFCLPDPYGCSCATGWKGLQCNEACHPGFYGPDCKLRCSCNNGEMCDRFQGCLCSPGWQGLQCEREGIPRMTPKIVDLPDHIEVNSGKFNPICKASGWPLPTNEEMTLVKPDGTVLHPKDFNHTDHFSVAIFTIHRILPPDSGVWVCSVNTVAGMVEKPFNISVKVLPKPLNAPNVIDTGHNFAVINISSEPYFGDGPIKSKKLLYKPVNHYEAWQHIQVTNEIVTLNYLEPRTEYELCVQLVRRGEGGEGHPGPVRRFTTASIGLPPPRGLNLLPKSQTTLNLTWQPIFPSSEDDFYVEVERRSVQKSDQQNIKVPGNLTSVLLNNLHPREQYVVRARVNTKAQGEWSEDLTAWTLSDILPPQPENIKISNITHSSAVISWTILDGYSISSITIRYKVQGKNEDQHVDVKIKNATIIQYQLKGLEPETAYQVDIFAENNIGSSNPAFSHELVTLPESQAPADLGGGKGPGEPRGPTIKPCPPCKCPAPNLLGGPSVFIFPPKIKDVLMISLSPIVTCVVVDVSEDDPDVQISWFVNNVEVHTAQTQTHREDYNSTLRVVSALPIQHQDWMSGKEFKCKVNNKDLPAPIERTISKPKGSVRAPQVYVLPPPEEEMTKKQVTLTCMVTDFMPEDIYVEWTNNGKTELNYKNTEPVLDSDGSYFMYSKLRVEKKNWVERNSYSCSVVHEGLHNHHTTKSFSRTPGK | – | – | – | – | – | – | – | – |
